Laboratory results published in EP4653533A1 (JCR Pharmaceuticals Co., Ltd., dated 2025).
Where a chain is given by its changes, count along the chain named. Read-outs that look alike come from different tables or passages of the source.

What was measured:
[1] = molecular target: T1, recombinant monkey TfR (extracellular region of cynomolgus monkey transferrin receptor, N-terminal histidine … (cynomolgus monkey (Macaca fascicularis), UniProt Q5RDH6 89-760 (Pongo abelii entry))); experiment: BLI (OctetRED96), His-tagged TfR ECD on Ni-NTA biosensor, peptide in solution
T1 construct: also called r monkey TfR; monkey TfR-ECD (Histag); not shown: histidine tag at the N-terminus
T1 chain: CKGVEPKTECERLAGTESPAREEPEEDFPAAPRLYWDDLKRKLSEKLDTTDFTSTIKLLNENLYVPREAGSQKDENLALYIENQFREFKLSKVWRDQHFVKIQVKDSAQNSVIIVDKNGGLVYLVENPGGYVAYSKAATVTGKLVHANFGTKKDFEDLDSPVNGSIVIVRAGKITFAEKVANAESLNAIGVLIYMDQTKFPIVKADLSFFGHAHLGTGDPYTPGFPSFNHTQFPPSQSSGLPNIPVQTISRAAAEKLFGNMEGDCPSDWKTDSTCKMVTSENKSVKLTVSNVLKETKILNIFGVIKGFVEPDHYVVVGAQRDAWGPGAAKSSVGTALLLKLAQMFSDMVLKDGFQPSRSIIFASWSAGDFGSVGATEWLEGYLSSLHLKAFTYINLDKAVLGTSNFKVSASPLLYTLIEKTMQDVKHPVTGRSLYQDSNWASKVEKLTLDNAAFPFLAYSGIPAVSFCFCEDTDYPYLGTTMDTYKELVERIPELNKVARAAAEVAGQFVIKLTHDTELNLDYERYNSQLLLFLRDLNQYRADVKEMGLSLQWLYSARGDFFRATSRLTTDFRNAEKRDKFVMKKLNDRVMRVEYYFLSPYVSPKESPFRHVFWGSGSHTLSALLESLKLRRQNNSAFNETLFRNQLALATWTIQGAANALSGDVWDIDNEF

[2] = molecular target: T2, recombinant mouse TfR (extracellular region of mouse transferrin receptor, N-terminal histidine tag) (mouse, UniProt Q62351 89-763); experiment: calculated from BLI KD values; reference is the KD of the same peptide for hTfR
T2 construct: also called r mouse TfR; mouse TfR-ECD (Histag); not shown: histidine tag at the N-terminus
T2 sequence (Q62351 89-763): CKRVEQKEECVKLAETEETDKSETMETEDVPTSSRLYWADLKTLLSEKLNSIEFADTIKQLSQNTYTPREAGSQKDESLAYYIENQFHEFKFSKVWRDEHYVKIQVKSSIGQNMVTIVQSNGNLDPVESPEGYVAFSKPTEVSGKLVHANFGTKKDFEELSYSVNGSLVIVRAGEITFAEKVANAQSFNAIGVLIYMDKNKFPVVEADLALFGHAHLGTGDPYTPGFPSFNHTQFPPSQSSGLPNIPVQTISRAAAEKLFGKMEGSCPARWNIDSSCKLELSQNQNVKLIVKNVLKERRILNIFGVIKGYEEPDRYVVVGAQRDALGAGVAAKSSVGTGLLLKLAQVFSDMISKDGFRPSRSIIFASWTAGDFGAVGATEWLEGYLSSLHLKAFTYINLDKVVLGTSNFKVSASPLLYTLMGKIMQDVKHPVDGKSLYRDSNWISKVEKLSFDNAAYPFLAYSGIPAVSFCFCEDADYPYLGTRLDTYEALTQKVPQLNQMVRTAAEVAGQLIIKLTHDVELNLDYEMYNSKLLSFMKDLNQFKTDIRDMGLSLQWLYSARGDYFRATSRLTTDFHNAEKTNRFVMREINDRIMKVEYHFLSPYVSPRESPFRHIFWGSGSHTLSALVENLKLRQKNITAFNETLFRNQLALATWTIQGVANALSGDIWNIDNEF

[3] = molecular target: T1, recombinant monkey TfR (extracellular …); experiment: as above
[4] = molecular target: T3, recombinant hTfR (extracellular region of human transferrin receptor, N-terminal histidine tag) (human, UniProt P02786 89-760); experiment: BLI (OctetRED96), His-tagged TfR ECD on Ni-NTA biosensor, peptide in solution
T3 construct: also called rhTfR; human TfR; not shown: histidine tag at the N-terminus

[5] = molecular target: T2, recombinant mouse TfR (extracellular …); experiment: as above
[6] = molecular target: T1, recombinant monkey TfR (extracellular …); experiment: as above

B1: hTfR affinity peptide 1 (VHH)
VHH: QVQLVESGGGLVQPGESLRLSCAASGSIFDIYVMRWYRQAPGKQREWVASIYDGGRSDYEAVVKGRFIISRDNAKNTGYLQMNSLKPEDTAVYFCNVLIYAGRNYWGQGTQVTVSS
notes: also called Clone 1; VHH(1)
B1 was tested, and the Kd [1] was 8.24 nM, the “relative value of the dissociation constant (KD with hTfR set to 1)” value (“relative value” below) [2] was 5.7 fold and the “relative value” value [3] was 8.84 fold. It also gave a Kd [4] of 0.932 nM, a Kd [5] of 5.31 nM and a Kd [6] of 82.4 nM.

B2: hTfR affinity peptide 3 (VHH)
VHH: B1 VHH with L20I, E60V, A61N, I68T, Y79D, I99T, A101P
notes: It says only that the purified product was obtained in the same manner as peptide 1; also called Clone 2; VHH(3)
For B2, the “relative value” value [2] was 1.31 fold, the “relative value” value [3] was 3.95 fold and the Kd [4] was 4.4 nM. The Kd [5] was 5.75 nM and the Kd [6] was 17.4 nM.
